According to PMC10981688, “PCSK9 stimulates Syk, PKCδ, and NF-κB, leading to atherosclerosis progression independently of LDL receptor” (Nature Communications, 2024):
Values belong to the binder of their own block, whether it stands above or below them.

Key:
Conditions in all cases: both partners purified
[1] = biological target: T1, recombinant human PCSK9 with 6x His tag (proprotein convertase subtilisin/kexin type-9) (human, UniProt Q8NBP7 31-692); assay: BLI; BLItz system; PCSK9-His (hPCSK9, 500 nM, 120 s loading) immobilised on an anti-Penta-HIS sensor; association 120 s, dissociation 120 s; sensorgrams fit globally to a 1:1 binding model
T1 construct: proprotein convertase subtilisin/kexin type-9 (PCSK9), human, recombinant; written here as one chain; also called rhPCSK9-His; PCSK9-His

[2] = biological target: T2, recombinant human Syk (spleen tyrosine kinase) (human, UniProt P43405 1-635); assay: BLI; BLItz system; CAP1-mFc immobilised on an anti-mouse IgG Fc (AMC) sensor; Syk or PKCδ in the association step (120 s), dissociation 120 s; global 1:1 binding model
T2 construct: spleen tyrosine kinase (Syk), human, recombinant; also called rhSyk; source: bought: Abcam (ab60886)

[3] = biological target: T3, recombinant human PKCδ (protein kinase C delta) (human, UniProt Q05655 1-676); assay: as above
T3 construct: protein kinase C delta (PKCδ), human, recombinant; also called rhPKCδ; source: bought: Abcam (ab60844)
T3 sequence (Q05655 whole entry, stated change not applied): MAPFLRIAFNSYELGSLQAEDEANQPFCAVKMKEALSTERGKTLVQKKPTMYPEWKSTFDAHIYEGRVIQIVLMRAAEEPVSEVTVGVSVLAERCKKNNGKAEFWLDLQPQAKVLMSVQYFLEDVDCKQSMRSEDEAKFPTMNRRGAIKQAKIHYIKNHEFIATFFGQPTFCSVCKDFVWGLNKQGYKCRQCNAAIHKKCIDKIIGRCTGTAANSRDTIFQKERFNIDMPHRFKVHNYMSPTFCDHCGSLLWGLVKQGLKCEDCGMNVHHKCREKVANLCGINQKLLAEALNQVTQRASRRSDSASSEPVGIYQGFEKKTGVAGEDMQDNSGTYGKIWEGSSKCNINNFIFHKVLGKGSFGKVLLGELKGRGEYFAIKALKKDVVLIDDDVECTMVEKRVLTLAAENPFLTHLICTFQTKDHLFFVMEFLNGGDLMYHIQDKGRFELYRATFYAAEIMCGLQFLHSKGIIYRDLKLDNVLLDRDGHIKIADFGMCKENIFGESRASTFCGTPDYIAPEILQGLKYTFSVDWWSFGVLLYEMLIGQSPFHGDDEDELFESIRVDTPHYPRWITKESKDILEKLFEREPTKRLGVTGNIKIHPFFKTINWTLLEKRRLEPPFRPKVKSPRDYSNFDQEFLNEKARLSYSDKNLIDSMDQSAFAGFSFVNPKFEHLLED

Kd [1]: 0.032 µM
B1: recombinant human CAP1 (adenylyl cyclase-associated protein 1) (natural protein, UniProt Q01518 1-475, looked up)
chain: MADMQNLVERLERAVGRLEAVSHTSDMHRGYADSPSKAGAAPYVQAFDSLLAGPVAEYLKISKEIGGDVQKHAEMVHTGLKLERALLVTASQCQQPAENKLSDLLAPISEQIKEVITFREKNRGSKLFNHLSAVSESIQALGWVAMAPKPGPYVKEMNDAAMFYTNRVLKEYKDVDKKHVDWVKAYLSIWTELQAYIKEFHTTGLAWSKTGPVAKELSGLPSGPSAGSCPPPPPPCPPPPPVSTISCSYESASRSSLFAQINQGESITHALKHVSDDMKTHKNPALKAQSGPVRSGPKPFSAPKPQTSPSPKRATKKEPAVLELEGKKWRVENQENVSNLVIEDTELKQVAYIYKCVNTTLQIKGKINSITVDNCKKLGLVFDDVVGIVEIINSKDVKVQVMGKVPTISINKTDGCHAYLSKNSLDCEIVSAKSSEMNVLIPTEGGDFNEFPVPEQFKTLWNGQKLVTTVTEIAG
notes: adenylyl cyclase-associated protein 1 (CAP1), human, recombinant; also called rhCAP1; hCAP1; source: bought: Abnova (H00010487-P01)

Kd [2]: 0.00596 µM
Kd [3]: 0.322 µM
B2: human CAP1 whose carboxyl-terminal end was conjugated with the Fc region of mouse immunoglobulin (Fc fusion, UniProt Q01518 1-475, looked up)
chain: B1 chain
notes: adenylyl cyclase-associated protein 1 (CAP1), human; also called CAP1-mFc; hCAP1-mFc; source: Expi293F, transfected, purified to homogeneity; not shown: Fc (mouse immunoglobulin), C-terminal, kept
